In the RNAGym collection of RNA variant scans (doi:10.7554/elife.80360) one finds self-cleavage data, which are given here for 39 variants.

B1: CPEB3 Ribozyme (parent)
chain: GGGGGCCACAGCAGAAGCGUUCACGUCGCGGCCCCUGUCAGAUUCUGGUGAAUCUGCGAAUUCUGCUGU

The variants in this series derive from B1. As to the kind of experiment: self-cleavage, relative activity (ratio to wild type); higher = more cleavage; co-transcriptional.
On to GGGGGCCACAGCAGAAGCGUUCACGUCGCGACCCGUGUCAGAUUCUGGUGAAUCUGCGAAUUCUGCUGU [G31A C35G], for which the self-cleavage was 0.26.
Under GGGGGCCACAGCAGAAGCGUUCACGUCGCGACCCCUGUCAGAUUCAGGUGAAUCUGCGAAUUCUGCUGU [G31A U46A] stands 0.866.
In the case of GGGGGCCACAGCAGAAGCGUUCACGUCGCGACCCCUGUCAGAUUCUGGUGCAUCUGCGAAUUCUGCUGU [G31A A51C], the self-cleavage stood at 0.897.
As for GGGGGCCACAGCAGAAGCGUUCACGUCGCGACCCCUGUCAGAUUCUGGUGUAUCUGCGAAUUCUGCUGU [G31A A51U], the self-cleavage came to 0.879.
In the case of GGGGGCCACAGCAGAAGCGUUCACGUCGCGACCCCUGUCAGAUUCUGGUGGAUCUGCGAAUUCUGCUGU [G31A A51G], the self-cleavage amounted to 0.928.
The value for GGGGGCCACAGCAGAAGCGUUCACGUCGCGACCCCUGUCAGAUUCUGGUGAAUCUGCGAAUUCUGCCGU [G31A U67C] was 0.984.
Take GGGGGCCACAGCAGAAGCGUUCACGUCGCGACCCCUGUCAGAUUCUGGUGAAUCUGCGAAUUCUGCAGU [G31A U67A]: the self-cleavage is 0.951.
GGGGGCCACAGCAGAAGCGUUCACGUCGCGACCCCUGUUAGAUUCUGGUGAAUCUGCGAAUUCUGCUGU [G31A C39U]: the self-cleavage came to 0.589.
For GGGGGCCACAGCAGAAGCGUUCACGUCGCGACCCCUGUGAGAUUCUGGUGAAUCUGCGAAUUCUGCUGU [G31A C39G], the self-cleavage came out at 0.733.
In the case of GGGGGCCACAGCAGAAGCGUUCACGUCGCGACCCCUGCCAGAUUCUGGUGAAUCUGCGAAUUCUGCUGU [G31A U38C], the self-cleavage stood at 0.762.
GGGGGCCACAGCAGAAGCGUUCACGUCGCGACCCCUGUCAGAUUCUGGUGAACCUGCGAAUUCUGCUGU [G31A U53C]: the self-cleavage is 0.58.
For the variant GGGGGCCACAGCAGAAGCGUUCACGUCGCGACCCCUGUCAGAUUCUGGUGAAACUGCGAAUUCUGCUGU [G31A U53A], the self-cleavage was found to be 0.554.
As for GGGGGCCACAGCAGAAGCGUUCACGUCGCGACCCCUGUCAGAUUCUGGUGAAUCUGCGAAAUCUGCUGU [G31A U61A], the self-cleavage worked out at 0.364.
As to GGGGGCCACAGCAGAAGCGUUCACGUCGCGACCCCUGUCAGAUUCUGGUGAAUCUGCGAAGUCUGCUGU [G31A U61G], the self-cleavage came to 0.381.
For GGGGGCCACAGCAGAAGCGUUCACGUCGCGACCCCUGUCAGAUUCUUGUGAAUCUGCGAAUUCUGCUGU [G31A G47U], the self-cleavage turned out to be 0.915.
GGGGGCCACAGCAGAAGCGUUCACGUCGCGACCCCUGUCGGAUUCUGGUGAAUCUGCGAAUUCUGCUGU [G31A A40G]: the self-cleavage came out at 0.771.
In the case of GGGGGCCACAGCAGAAGCGUUCACGUCGCGACCCCUGUCUGAUUCUGGUGAAUCUGCGAAUUCUGCUGU [G31A A40U], the self-cleavage came out at 0.533.
Turning to GGGGGCCACAGCAGAAGCGUUCACGUCGCGACCCCUGUCCGAUUCUGGUGAAUCUGCGAAUUCUGCUGU [G31A A40C], the self-cleavage came to 0.218.
For GGGGGCCACAGCAGAAGCGUUCACGUCGCGACCCCUGUCAGAUUCUGGUGAAUCUGCGAAUUCUGCUGU [G31A], the self-cleavage was 0.931.
The value for GGGGGCCACAGCAGAAGCGUUCACGUCGCGACCCCUGUCAGAUUCUGGUGACUCUGCGAAUUCUGCUGU [G31A A52C] was 0.82; that for GGGGGCCACAGCAGAAGCGUUCACGUCGCGACCCCUGUCAGAUUCUGGUGAAUCUGCGAGUUCUGCUGU [G31A A60G] was 0.475; that for GGGGGCCACAGCAGAAGCGUUCACGUCGCGACCCCUGUCAGAUUCUGGUGAAUCUGCGAAUUCGGCUGU [G31A U64G] was 0.728.
With GGGGGCCACAGCAGAAGCGUUCACGUCGCGACCCCUGUCAGAUCCUGGUGAAUCUGCGAAUUCUGCUGU [G31A U44C], the self-cleavage is 0.749.
Under GGGGGCCACAGCAGAAGCGUUCACGUCGCGACCCCUGUCAGAUGCUGGUGAAUCUGCGAAUUCUGCUGU [G31A U44G] stands 0.585; under GGGGGCCACAGCAGAAGCGUUCACGUCGCGACCCCUGUCAGAUACUGGUGAAUCUGCGAAUUCUGCUGU [G31A U44A], 0.808; under GGGGGCCACAGCAGAAGCGUUCACGUCGCGACCCCGGUCAGAUUCUGGUGAAUCUGCGAAUUCUGCUGU [G31A U36G], 0.268.
Regarding GGGGGCCACAGCAGAAGCGUUCACGUCGCGACCCCAGUCAGAUUCUGGUGAAUCUGCGAAUUCUGCUGU [G31A U36A], the self-cleavage amounted to 0.218.
Under GGGGGCCACAGCAGAAGCGUUCACGUCGCGACCCCCGUCAGAUUCUGGUGAAUCUGCGAAUUCUGCUGU [G31A U36C] stands 0.669.
In the case of GGGGGCCACAGCAGAAGCGUUCACGUCGCGACCCCUGUCAGAUUCUGGUGAAUCUGCAAAUUCUGCUGU [G31A G58A], the self-cleavage came to 0.741.
Turning to GGGGGCCACAGCAGAAGCGUUCACGUCGCUGCCCCUGUCAGAUUCUGGUGAAUCUGCGAAUUCGGCUGU [G30U U64G], the self-cleavage was 0.219.
In the case of GGGGGCCACAGCAGAAGCGUUCACGUCGCUGCCCCUGUCAGAUUCUGGUGAAUCUGCGAAUUCAGCUGU [G30U U64A], the self-cleavage is 0.288.
Consider GGGGGCCACAGCAGAAGCGUUCACGUCGCUGCCCCUGUCAGAUUCUGGUGAAUCUGCGAAUGCUGCUGU [G30U U62G], for which the self-cleavage was 0.19.
The value for GGGGGCCACAGCAGAAGCGUUCACGUCGCUGCCCCUGUCAGAUUCUGGUGAAUCUGCGAAUCCUGCUGU [G30U U62C] was 0.211; that for GGGGGCCACAGCAGAAGCGUUCACGUCGCUGCCCCUGUCAGAUUCUGGUGAAUCUGCGAAUUCUGCUGA [G30U U69A] was 0.666.
Under GGGGGCCACAGCAGAAGCGUUCACGUCGCGACCCCUGUCAGAUUCUGGUGAAUCUGCGAAUACUGCUGU [G31A U62A] stands 0.352; under GGGGGCCACAGCAGAAGCGUUCACGUCGCGACCCCUGUCAGAUUCUGGUGAAUCUGCGAAUGCUGCUGU [G31A U62G], 0.434.
In the case of GGGGGCCACAGCAGAAGCGUUCACGUCGCGACCCCUGUCAGAUUCUGGUGAAUCUGCGAAUCCUGCUGU [G31A U62C], the self-cleavage is 0.406.
For the variant GGGGGCCACAGCAGAAGCGUUCACGUCGCGAUCCCUGUCAGAUUCUGGUGAAUCUGCGAAUUCUGCUGU [G31A C32U], the self-cleavage was 0.534.
Under GGGGGCCACAGCAGAAGCGUUCACGUCGCGAACCCUGUCAGAUUCUGGUGAAUCUGCGAAUUCUGCUGU [G31A C32A] stands 0.637.
